Experimental findings from patent US20250236663A1 (NEURACLE SCIENCE, published 2025) are described below.

Changes are numbered by the printed parent chain.

Experiment [1] concerns the target T1, FAM19A5-M5.
T1 construct: also called FAM19A5 mutant M5
T1 FAM19A5 mutant: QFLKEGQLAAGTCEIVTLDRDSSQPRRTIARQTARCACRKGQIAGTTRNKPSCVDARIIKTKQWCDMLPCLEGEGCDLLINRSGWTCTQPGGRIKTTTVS
Description: ELISA on phage-displayed FAM19A5 mutants; y axis without label; no blank in the panel, lowest bars about 0.05. In general terms: An ELISA detects its analyte on a solid surface through an enzyme-linked reagent.

In experiment [2] the target is T2, FAM19A5 mutant M6 (human).
T2 construct: FAM19A5 with region 6 replaced by the consensus of FAM19A1-4; The entry already carries the changes
T2 chain: T1 FAM19A5 mutant with N49A, K50R, S52A, K60L, T61Q, K62R, Q63W, D66Q, L68E, P69L
The description is as above.

Experiment [3] addresses T3, FAM19A5 fragment 5 mutant peptide F5-1 (#1) (human).
T3 construct: The entry already carries the alanine substitution and Ser for Cys; also called mutant peptide #1
T3 peptide: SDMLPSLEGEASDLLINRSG
Description: ELISA on the coated F5 mutant peptide. How it is done: (§1) Overlapping peptide fragments (F1-F6, see FIG. 9) of the human FAM19A5 protein were synthesized and conjugated to BSA. Binding of the different anti-FAM19A5 antibodies to the BSA-conjugated peptide fragments F1-F6 was determined by Western blot analysis or ELISA assay. For the Western blot analysis, BSA-conjugated FAM19A5 fragments F1-F6 were separated by SDS polyacrylamide gel electrophoresis and transferred to a nitrocellulose membrane by the standard procedure. The membrane was incubated with the anti-FAM19A5 antibody (e.g., 1-65, 2 μg/ml, 1-65-scFv-rabbit Fc-SSS), and the antigen-antibody complexes were detected with the appropriate secondary antibody conjugated with horse-radish peroxidase (anti-rabbit IgG (Fc specific)-HRP, 1:4000 dilution). For the ELISA assay, the following protocol was used. FAM19A5 fragment F1-F6 (diluted to 1 μg/mL in 50 mM carbonate buffer (Biosesang) or to 20 μg/mL for high concentration analysis) were used to coat the wells of 96-well immuno plates (Thermo Scientific) (100 μL/well) overnight at 4° C. and then subsequently washed twice in 1×PBS. The plates were then blocked with the blocking buffer (100 μL/well) for 1 hour at room temperature. During the 1-hour incubation, the relevant anti-FAM19A5 antibodies were diluted to 1 μg/mL (or 20 μg/mL for high concentration analysis) in the diluent buffer. Once the plates were washed (2× using 1×PBS), the diluted anti-FAM19A5 antibodies were added to the appropriate wells, and the plates were incubated at room temperature for 1 hour. The plates were subsequently washed for a total of five times using the washing buffer. Next, the ODP substrate (prepared by dissolving one ODP tablet (O-phenylenediamine Dihydrochloride, Thermo) into 9 mL of sterilized deionized water and 1 mL of 10× stable Peroxide Stable buffer (Theromo)) was added to each of the wells, and the color change reaction was allowed to occur for 10 minutes. This reaction was stopped by adding 100 μL of 2N H2SO4 (Daejung) to the wells. The absorption value of each of the wells was detected at 492 nm using a 96-well microplate reader (Molecular Device).
(§2) Next, to identify the specific amino acid residues within the epitope fragment F5 that the 1-65 and P2-C12 antibodies bind to, different amino acid residues of the F5 fragment were replaced with alanine as shown in Table 9 (below).

Experiment [4] has as its target T4, FAM19A5 fragment 5 mutant peptide F5-6 (#6) (human).
T4 construct: The entry already carries the alanine substitution and Ser for Cys; also called mutant peptide #6
Description: ELISA on the coated F5 mutant peptide. As for the experimental part:
as §1, §2

Experiment [5] concerns the target T5, FAM19A5 fragment 5 mutant peptide F5-8 (#8) (human).
T5 construct: The entry already carries the alanine substitution and Ser for Cys; also called mutant peptide #8
T5 peptide: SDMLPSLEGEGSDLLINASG
In words: ELISA on the coated F5 mutant peptide. How it is done: as §1, §2

Experiment [6] has as its target T6, FAM19A5 fragment 5 mutant peptide F5-2 (#2) (human).
T6 construct: The entry already carries the alanine substitution and Ser for Cys; also called mutant peptide #2
Description: ELISA on the coated F5 mutant peptide. How it is done:
as §1, §2

Experiment [7] concerns the target T7, FAM19A5 fragment 5 mutant peptide F5-4 (#4) (human).
T7 construct: The entry already carries the alanine substitution and Ser for Cys; also called mutant peptide #4
In words: ELISA on the coated F5 mutant peptide. How it is done:
as §1, §2

Experiment [8] addresses T8, FAM19A5 fragment 5 mutant peptide F5-5 (#5) (human).
T8 construct: The entry already carries the alanine substitution and Ser for Cys; also called mutant peptide #5
T8 peptide: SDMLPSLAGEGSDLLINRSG
In words: ELISA on the coated F5 mutant peptide. How it is done:
as §1, §2

Experiment [9] deals with T9, FAM19A5 fragment 5 mutant peptide F5-3 (#3) (human).
T9 construct: The entry already carries the alanine substitution and Ser for Cys; also called mutant peptide #3
T9 sequence (peptide, as listed by the source mutant): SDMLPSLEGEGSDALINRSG
In words: ELISA on the coated F5 mutant peptide. How it is done: as §1, §2

Experiment [10] deals with T2, FAM19A5 mutant M6. In words: ELISA on phage-displayed FAM19A5 mutants; y axis without label.
Experiment [11] addresses T1, FAM19A5-M5. Description: ELISA on phage-displayed FAM19A5 mutants; y axis without label; no blank in the panel.

T4 sequence (peptide, as listed by the source mutant): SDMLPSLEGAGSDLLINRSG
T6 sequence (peptide, as listed by the source mutant): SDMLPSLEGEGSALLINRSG
T7 sequence (peptide, as listed by the source mutant): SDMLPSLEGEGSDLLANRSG

B1: Anti-FAM19A5 (P2-A01) (antibody, V domains shown)
VH: QEQLVESGGRLVTPGTPLTLSCTASGFFLSGYYMSWVRQAPGKGLEWIGIIYPSGSTDYASWAKGRFTISKTSTTVDLKITTPTTEDTATYFCARVAGYVGYGYETFFDIWGPGTLVTVSL
VL: ELVMTQTPPSLSASVGETVRIRCLASEDIYSGISWYQQKPGKPPTLLIYGASNLESGVPPRFSGSGSGSDYTLTIGGVQAEDAATYYCLGGVTYSSTGTHLTFGAGTNVEIK
notes: Only variable domains are tied to the name
Turning to B1, the binding result with FAM19A5-M5 [1] and with FAM19A5 mutant M6 [2] was “binds” each time.

B2: Anti-FAM19A5 (P1-A08) (antibody, V domains shown)
VH: QSLEESGGRLVTPGTPLTLTCTASGFSLSTYYMSWVRQAPGKGLEWIGIVYPSGTTYYANWAKGRFTISTASTTVDLMITSPTTEDTATYFCARGDSFGYGLWGPGTLVTVSS
VL: ELVLTQSPSVQVNLGQTVSLTCTADTLSRSYASWYQQKPGQAPVLLIYRDTSRPSGVPDRFSGSSSGNTATLTISGAQAGDEADYYCATSDGSGSNYQYVFGGGTQLTVT
notes: as for B1
As for B2, the binding result with FAM19A5-M5 [1] and in the experiment with FAM19A5 mutant M6 [2] was “binds” throughout.

B3: Anti-FAM19A5 (P2-F11) (antibody, V domains shown)
VH: QEQLVESGGRLVTPGTTLTLTCTVSGFSLSSYGVSWVRQAPGKGLEWIGYIANNYNPHYASWAKGRFTISKTSSTTVDLKMTSLTTEDTATYFCARDNYGMDPWGPGTLVTVSS
VL: ELDLTQTPSSVSAAVGGTVTINCQASQSVYNNKNLAWYQQKPGQPPKLLIYAASTLASGVSSRFKGSGSGTQFTLTISDVQCDDAATYYCQGEFSCSSADCNAFGGGTELEIL
notes: as for B1
In the case of B3, the binding result with FAM19A5-M5 [1] was “binds”.

B4: Anti-FAM19A5 (P2-C12) (antibody, V domains shown)
VH: QSLEESGGRLVTPGTPLTLTCTVSGFSLSTYAVTWVRQAPGKGLEWIGYINWRGGTSYANWAKGRFTISKTSSTTVDLKMTSPTTEDTATYFCARDASSGAAFGSYGMDPWGPGTLVTVSS
VL: ELDMTQTPSSVSAAVGGTVTIKCQASQSISSYLSWYQQKPGQPPKLLIYEASKLASGVPSRFSGSGYGTEFTLTISDLECADAATYYCQQGYSSTNVWNAFGGGTNVEIK
notes: Only variable domains are tied to the name; also called anti-FAM19A5 antibody P2-C12
Turning to B4, the “O.D (492nm)” value in [3] is 0.056; in experiment [4] it was 0.095; in experiment [5], 0.1; in experiment [6], 3.65; in [7], 3.86; in experiment [8], 3.49. Also, the “O.D (492nm)” value in experiment [9] was 3.84. The binding result was “no binding” in experiment [3]; “no binding” in experiment [4]; “no binding” in experiment [5]; “binds” with FAM19A5-M5 [1]; “no binding” with FAM19A5 mutant M6 [10].

B5: Anti-FAM19A5 (15A9) (antibody, V domains shown)
VH: QVQLQESGPGLVKPSETLSLTCTVSGGSISSYYWSWIRQPPGKGLEWIGYIYPSGSTNYNPSLKSRVTISVDTSKNQFSLNLKSVTAVDTAVYYCARVNPFGYYYAMDVWGQGTTVTVSS
VL: DIQMTQSPSSLSASVGDRITISCRASQSISTSLNWYQQTPGKAPRLLIYGASTLQSGVPSRFSGGGSGTDFSLTITSLQPEDFATYYCQESASIPRTFGQGTKLDIK
notes: as for B1
On to B5, for which the binding result in the experiment with FAM19A5-M5 [11] is “binds”.

B6: Anti-FAM19A5 (P2-F07) (antibody, V domains shown)
VH: QSLEESGGRLVTPGTPLTLTCTASGFSLSSYYMNWVRQAPGKGLEWIGIIYPSGTTYYAGWAKGRFTISKTSTTVDLKITSPTSEDTATYFCARTVSGYFDIWGPGTLVTVSL
VL: ELDLTQTPPSLSASVGGTVTINCLASEDIYSALAWYQQKPGKPPTLLISGTSNLESGVPPRFSGSGSGTDYTLTIGGVQAEDAATYFCQGYSSYPLTFGAGTNVEIK
notes: as for B1
Turning to B6, the binding result with FAM19A5-M5 [1] and with FAM19A5 mutant M6 [2] was “binds” each time.

B7: Anti-FAM19A5 (P1-F02) (antibody, V domains shown)
VH: QSLEESGGRLVTPGTPLTLTCTASGFSLSNYYMGWVRQAPGEGLEWIGIIYASGSTYYASWAKGRFTISKTSTTVDLKMTSLTTEDTATYFCARIDIGVGDYGWAYDRLDLWGQGTLVTVSS
VL: ELDMTQTPPSLSASVGETVRIRCLASEDIYSGISWYQQKPGKPPTLLIYGASNLESGVPPRFSGSGSGTDYTLTIGGVQAEDAATYYCLGGYSYSSITFGAGTNVEIK
notes: as for B1
On to B7, for which the binding result with FAM19A5-M5 [1] and in the experiment with FAM19A5 mutant M6 [2] was “binds” each time.
